From patent publication US9901646B2, “Methods for induction of antigen-specific immune tolerance” (École Polytechnique Fédérale de Lausanne (EPFL), priority 2010, dated 2018)
Each block holds one molecule with its values, some of them ahead of it. 8‑arm PEG = 8-arm polyethylene glycol (PEG) dendrimer, conjugated via pyridyldisulfide groups to cysteine thiols

How the values were obtained:
human endothelial HUVECs = experiment: Binding of bacteria displaying peptide to cells, flow cytometry; details: peptide displayed on bacteria
Procedure: (§1) Method: To characterize specificity, individual sequenced clones were analyzed using cytometry for binding toward human erythrocytes (type A and B), mouse erythrocytes, HEK293T cells and HUVECs. For binding assays, 10^6 mammalian cells were scanned on an AccuriA6 after co-incubation with 5×10^7 bacteria for 1 h at 4° C. followed by three washes in HFS (5% HSA, 2% FBS in PBS). The percentage of cells with green bacteria bound was calculated using FLOWJO Software.

[1] = test system: human epithelial 293T cells; experiment: as above; details: peptide displayed on bacteria
Procedure: as §1

[2] = test system: human erythrocytes (type A and B); experiment: as above; details: peptide displayed on bacteria, 1 h at 4° C.
Procedure: as §1

mouse erythrocytes [3] = experiment: 8-arm PEG constructs binding to erythrocytes in vitro, flow cytometry
circulating erythrocytes = experiment: 8-arm PEG constructs binding to circulating erythrocytes after intravenous injection, flow cytometry; assay type: in vivo, mouse
From the text: FIG. 17 presents experimental results depicting erythrocyte cell-surface half-life of 8-arm PEG-ERY1 (filled circles) and 8-arm PEG-MIS (empty boxes), determined by flow cytometry.

mouse erythrocytes [4] = experiment: TER119-ChrA binding to erythrocytes; details: data not shown
BDC2.5 CD4 T cells = experiment: Co-culture of BDC2.5 splenic dendritic cells and CD4 T cells, proliferation; assay type: cell-based, mouse; details: co-culture with BDC2.5 splenic dendritic cells
From the text: FIG. 24 is a plot of experimental results showing proliferation of CD4 T cells from the transgenic NODBDC2.5 mouse in co-culture with splenic DCs, with various media additives.
To study T cell behavior towards the chromogranin-A antigen variants, the NODBDC2.5 transgenic mouse was used, which harbors T cells specific for the recognition of the chromogranin-A antigen.

[5] = Immunogenicity of erythrocyte-bound versus wild-type asparaginase, serum IgG ELISA; assay type: in vivo, mouse; details: 2-dose regimen, 15 μg i.v. every 2 days, up to 21 days following the final injection
Procedure: A mouse erythrocyte-binding variant of asparaginase (ERY1-ASNase) was created by conjugating the mouse erythrocyte-specific peptide ERY1 (Kontos and Hubbell, 2010). To determine the immunogenicity of erythrocyte-bound versus wild-type asparaginase, a study was performed to evaluate to evaluate two regimens, namely exposure to a 2-dose and a 6-dose regimen of the ERY conjugate (ERY1-ASNase) or the native form (ASPARAGINASE MEDAC, Medac GmbH; which was also used as the raw material for the ERY1-ASNase conjugate). In each regimen, 15 μg of ERY1-ASNase or ASNase was administered intravenously every 2 days, and blood was drawn every 7 days.
(§2) Desired dosages of ERY1-ASNase or ASNase were prepared in sterile 0.9% saline, and 100 μL of the solution was injected into the tail vein of anesthetized C57BL/6 mice. Blood was drawn at pre-determined time points either by cheek puncture or tail incisions.
(§3) Anti-asparaginase antibody detection from serum method Serum from experimental groups was serially diluted into PBS and incubated for 2 h at RT on ASNase-coated ELISA plates. HRP-conjugated anti-mouse IgG (Southern Biotech) was used as the detection antibody.

[6] = Prophylaxis study: tolerance towards wild-type asparaginase; assay type: in vivo, mouse; details: re-administration / six challenges with wild-type asparaginase
Procedure: A prophylaxis study was performed to determine if erythrocyte-binding asparaginase induced bona-fide immune tolerance towards wild-type asparaginase. Mice previously administered with wild-type clinical asparaginase were challenged with an additional dose following the onset of humoral immunity. […] On average, mice tolerized with erythrocyte-binding asparaginase developed approx. 6000-fold fewer antibodies towards clinical wild-type asparaginase.
as §2, §3

[7] = Cross-over study: reversal of pre-existing immunity towards asparaginase; assay type: in vivo, mouse; details: 21 days following multiple intravenous doses two days apart
Procedure: A cross-over study was performed to determine if erythrocyte-binding asparaginase could reverse immunity towards clinical asparaginase. Mice were intravenously administered multiple doses of wild-type asparaginase two days apart. […] Immunized mice were then therapeutically treated with erythrocyte-binding asparaginase regimens at varying doses. In both dosing regimens, ERY-conjugated asparaginase reduced antibody levels approx. 10-fold, thus reversing pre-existing humoral immunity
as §2
Serum from experimental groups was serially diluted into PBS and incubated for 2 h at RT on ASNase-coated ELISA plates. HRP-conjugated anti-mouse IgG (Southern Biotech) was used as the detection antibody.

Molecule: GQSGQSWSRAILPLFKIQPVGSSGGS (Erythrocyte Binding Peptide) [ERY50]
binding to endothelial HUVECs (human endothelial HUVECs): bound epithelial/endothelial cells
binding to epithelial 293T cells [1]: bound epithelial/endothelial cells
binding to human erythrocytes, specificity as compared to 293T cells and HUVECs [2]: bound human erythrocytes

B2: asparaginase (protein, UniProt P00805 23-348, looked up)
L-asparaginase 2: LPNITILATGGTIAGGGDSATKSNYTVGKVGVENLVNAVPQLKDIANVKGEQVVNIGSQDMNDNVWLTLAKKINTDCDKTDGFVITHGTDTMEETAYFLDLTVKCDKPVVMVGAMRPSTSMSADGPFNLYNAVVTAADKASANRGVLVVMNDTVLDGRDVTKTNTTDVATFKSVNYGPLGYIHNGKIDYQRTPARKHTSDTPFDVSKLNELPKVGIVYNYANASDLPAKALVDAGYDGIVSAGVGNGNLYKSVFDTLATAAKTGTAVVRSSRVPTGATTQDAEVDDAKYGFVASGTLNPQKARVLLQLALTQTKDPQQIQQIFNQY
notes: native asparaginase, Medac GmbH
asparaginase-specific antibody titers (immunogenicity) [5]: induced vigorous immunity
antibody response after challenge with wild-type asparaginase [6]: increased or remained high
anti-asparaginase antibodies in serum [7]: high levels of anti-asparaginase antibodies

The next lines start with results.

binding to mouse erythrocytes following in vitro incubation (mouse erythrocytes [3]): bind to mouse erythrocytes
binding to circulating erythrocytes upon intravenous injection (circulating erythrocytes; flow cytometry): bind to circulating erythrocytes
Molecule: 8-arm PEG-ERY1: fluorescent 8-arm PEG construct conjugated with ERY1 peptide by disulfide bond (H-WMVLPWLPGTLDGGSGC(8‑arm PEG)RG-NH2; also: Cys disulfide-linked to 8-arm PEG scaffold (fluorescent))
cell-surface half-life on circulating erythrocytes (circulating erythrocytes; intravenous administration): 2.2 h
time detected on circulating erythrocytes following intravenous administration (circulating erythrocytes; intravenous administration): 5 h

binding to mouse erythrocytes (mouse erythrocytes [4]): tightly bound mouse erythrocytes
B1: TER119-ChrA: chromogranin-A mimotope 1040-p31 recombinantly fused to mouse erythrocyte-specific scFv TER119 (protein)
scFv: EVKLQESGGGLVQPGGSLKLSCVASGFTFRDHWMNWVRQAPGKTMEWIGDIRPDGSDTNYAPSVRNRFTISRDNTRSILYLQMGNMRSDYTATYYCVRDSPTRAGLMDAWGQGTSVTVSSAGGGGSGGGGSGGGGSGGGGSDIQMTQSPSVLSASVGDRVTLNCKASQNINKYLNRYQQKLGEAPKVLVYNTNNLQTGIPSRFSGSGSGTDFTLTISSLQPEDFATYFCFQHYTWPTFGGVTKLEIKRTHHHHHHGGGYVRPLWVRME
processing and display on MHC-II, priming of antigen-specific proliferation of BDC2.5 CD4 T cells in vitro (BDC2.5 CD4 T cells): efficiently processed
